The values below come from patent publication US20260226154A1 (CEPHALON, published 2026).

For assay [1], the target named is T1, PACAP38 (human, not fully specified).
T1 peptide: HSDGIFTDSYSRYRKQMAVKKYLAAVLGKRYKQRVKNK
The experiment in a line: cell-based or functional assay.

Assay [2] concerns the target T2, PACAP27 (human, not fully specified).
T2 peptide: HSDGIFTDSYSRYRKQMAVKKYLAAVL
The experiment in a line: SPR (Biacore), 37 C, captured antibody; target PACAP27. As to the method: (§1) In brief, antibody and peptide interaction was determined on a Biacore S200 (GE Healthcare) by method previously described (Andreu and Gomes 2002). An anti-Human IgG Fc capture antibody was immobilized on a CM5 biosensor chip via standard amine coupling. Anti-PACAP antibodies were injected and captured to 200 to 400 response units (RU),). PACAP38, PACAP27 and VIP were diluted in HBS-EP+ buffer containing 0.1% w/v BSA (Bovostar, catalog number BSAS1.0) and 0.15 M NaCl (Sigma-Aldrich catalog number S7653), pH 7.4. Binding kinetics of antibodies were determined by injection of two-fold serial dilutions of PACAPs (12 nm to 0 nM) and VIP (1200 nM to 0 nM) in running buffer at 37° C. with a flow rate of 40 μL/min for 2 min followed by a dissociation for 10 minutes. For subsequent cycles, the chip was regenerated using 0.85% phosphoric acid. Data was analysed with the Biacore S200 Evaluation Software (ver 1.0). Association rate (kₐ) and dissociation rate (kd) constants were determined using a simple one-to-one Langmuir binding model and used to calculate the equilibrium dissociation constant (KD).
(§2) The selectivity of antibody 890C was assessed by comparing the inhibition of PACAP38-signalling to inhibition of VIP-signalling in a cyclic AMP (cAMP) measuring cell-based functional assay.

Assay [3] deals with T1, PACAP38. The experiment in a line: cell-based or functional assay.
The target in assay [4] is T1, PACAP38. The experiment in a line: cell-based or functional assay.
Assay [5] addresses T3, VIP (human).
T3 construct: also called vasoactive intestinal peptide
T3 peptide: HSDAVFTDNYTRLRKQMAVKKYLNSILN
The experiment in a line: SPR (Biacore), 37 C, captured antibody; target VIP. As to the method: as §1, §2

Assay [6] has as its target T1, PACAP38. Nature of the assay: SPR (Biacore S200) off-rate ranking, antibody captured from supernatant, single injection of 33.3 nM PACAP38. How it is done:
as §1, with “Binding kinetics of antibodies were determined by injection of two-fold serial dilutions of PACAPs (12 nm to 0 nM) and VIP (1200 nM to 0 nM) in running buffer at 37° C. with a flow rate of 40 μL/min for 2 min followed by a dissociation for 10 minutes.” left out

For assay [7], the target named is T3, VIP. Nature of the assay: cell-based or functional assay.
Assay [8] has as its target T1, PACAP38. Nature of the assay: cell-based or functional assay.
The target of assay [9] is T4, Secretin.
T4 peptide: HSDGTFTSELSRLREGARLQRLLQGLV
The experiment in a line: SPR (Biacore) at 37 C, captured antibody, 37.5 nM peptide, relative response after 15 sec dissociation. As to the method:
(§3) The anti-PACAP antibodies, e.g., 890C, were tested against related peptides in the Secretin Glucagon family (Table 19) to determine the presence and extent of any off-target binding. Nine bioactive peptides in the glucagon superfamily are: PACAP, VIP, glucagon, Glucagon-Like Peptides (GLP-1, GLP-2), Growth Hormone Releasing Factor (GRF or GHRF), Peptide Histidine Methionine (PHM), secretin, and Gastric inhibitory polypeptide (GIP). Following capture of antibodies as described in example 4, the antibody and the peptide interaction was measured by injection of 37.5 nM of each peptide diluted in buffer at 37° C. with a flow rate of […] for 2 min followed by a dissociation phase of 4-5 min. Samples were injected in a multi-cycle manner over freshly captured anti-PACAP antibody, by regenerating the capture surfaces with two injections of 0.85% phosphoric acid at a flow rate of 30 μL/min.
as §2

The target in assay [10] is T5, GLP-2.
T5 construct: also called Glucagon-Like Peptide 2
T5 peptide: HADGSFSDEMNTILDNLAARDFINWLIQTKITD
The description is as above. How it is done:
as §3, §2

For assay [11], the target named is Glucagon. The description is as above. As to the method: as §3, §2
Glucagon, sequence (peptide, as listed by the source): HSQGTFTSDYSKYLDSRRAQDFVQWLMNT
Assay [12] concerns the target T6, GLP-1.
T6 construct: also called Glucagon-Like Peptide 1
T6 peptide: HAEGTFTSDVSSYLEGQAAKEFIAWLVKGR
The description is as above. How it is done: as §3, §2

The target of assay [13] is T7, GRF.
T7 construct: also called GHRF; Growth Hormone Releasing Factor
T7 peptide: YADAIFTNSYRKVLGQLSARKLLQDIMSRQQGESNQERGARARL
The assay is described as above. As to the method:
as §3, §2

For assay [14], the target named is T8, PHM.
T8 construct: also called Peptide Histidine Methionine
T8 peptide: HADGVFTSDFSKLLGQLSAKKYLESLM
Described as above. As to the method:
as §3, §2

Assay [15] addresses T9, GIP.
T9 peptide: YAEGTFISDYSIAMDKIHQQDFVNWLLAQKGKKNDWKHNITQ
The assay is described as above. As to the method:
as §3, §2

Assay [16] addresses T1, PACAP38. The experiment in a line: SPR (Biacore), 37 C, captured antibody; target PACAP38. As to the method: as §1, §2
The target in assay [17] is T1, PACAP38. Nature of the assay: SPR (Biacore), 37 C, antibody captured via anti-human Fc, peptide analyte. How it is done: as §1

B1: 890C (antibody, human IgG2, kappa, V domains shown)
VH: EVQLVQSGAEVKKPGSSVKVSCKASGGTFSDVYMHWVRQAPGQGLEWMGLIYPIFADTRYAQKFQGRVTITADESTSTAYMELSSLRSEDTAVYYCAIDQDGSFAYWGQGTLVTVSS
VL: DIVMTQSPDSLAVSLGERATINCKSSQSLLDADGKTYLNWLQQKPGQPPKRLIYWASTRESGVPDRFSGSGSGTDFTLTISSLQAEDVAVYYCWQGTWFDLTFGGGTKVEIKR
notes: Full chains as named '890C heavy chain' / '890C light chain' (IgG2DASS, kappa); also called anti-PACAP antibody 890C
Turning to B1, the “selectivity, inhibition of PACAP38-induced cAMP production (CHO-K1, PAC1 receptor) versus VIP-induced cAMP production (CHO-K1, VPAC1 receptor)” value in assay [1] is more than 1000 fold. In addition, the Kd in assay [2] is 0.218 nM; in [5], 390 nM; in [6], 0.0284 nM; in assay [16], 0.054 nM; in assay [17], 0.0284 nM. In addition, in [3], the “PACAP-38 IC50” value was determined as 0.32 nM. The “IC50 (nM), PACAP-induced cAMP accumulation, CHO-K1 cells, cAMP-Glo” value in [4] worked out at 0.32 nM. Also, the koff in assay [6] and in assay [17] was 0.000671 s⁻¹ throughout. For the same molecule, the kon in [6] and in assay [17] was 2.36e+07 M⁻¹ s⁻¹ throughout. Further, the “IC50 (read off the curve), VIP-induced cAMP production, CHO-K1 cells expressing VPAC1” value in assay [7] is approximately 600 nM. For the same molecule, in assay [8], the “IC50 (read off the curve), PACAP-induced cAMP production, CHO-K1 cells expressing PAC1” value was approximately 0.4 nM. In assay [8], the “fold shift between the PACAP/PAC1 and the VIP/VPAC1 inhibition curves (selectivity for PACAP over VIP)” value was 1400 fold. Besides, the binding result in assay [9], in [10], in assay [11], in assay [12], in assay [13] and in assay [14] was “no binding (tested: 37.5 nM)” throughout. In assay [15], the binding result is reported as “no binding (tested: 37.5 nM)”.
